The text below walks through data of patent US20150152159A1.

Bounds are passed on as bounds.

The target in one assay is human growth hormone receptor on IM-9 cells (human) (UniProt P10912).
Sequence of UniProt P10912 (P10912 19-638): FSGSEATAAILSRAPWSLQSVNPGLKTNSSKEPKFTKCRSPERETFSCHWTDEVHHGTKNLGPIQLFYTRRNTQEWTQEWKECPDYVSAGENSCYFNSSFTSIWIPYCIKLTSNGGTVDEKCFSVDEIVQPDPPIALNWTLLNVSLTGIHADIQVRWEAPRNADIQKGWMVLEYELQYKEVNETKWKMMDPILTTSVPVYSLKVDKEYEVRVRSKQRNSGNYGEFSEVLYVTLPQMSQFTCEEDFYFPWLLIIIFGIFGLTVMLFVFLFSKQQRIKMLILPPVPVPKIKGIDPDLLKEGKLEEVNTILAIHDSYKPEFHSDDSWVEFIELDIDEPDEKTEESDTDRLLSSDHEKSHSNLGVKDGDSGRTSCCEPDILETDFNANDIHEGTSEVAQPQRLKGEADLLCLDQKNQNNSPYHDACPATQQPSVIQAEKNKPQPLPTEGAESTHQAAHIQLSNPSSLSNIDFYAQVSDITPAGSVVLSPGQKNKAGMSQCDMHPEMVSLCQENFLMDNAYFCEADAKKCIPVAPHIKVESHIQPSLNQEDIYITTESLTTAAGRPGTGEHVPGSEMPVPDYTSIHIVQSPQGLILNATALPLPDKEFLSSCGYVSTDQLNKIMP
Experiment: not given
As to “hGH F92pAF (from UniProt P01241 27-217) (ligand)”, the EC50, STAT5 phosphorylation in IM-9 cells (MFI of PE, intracellular phospho-STAT5 staining) worked out at 1.1 nM.

A further assay has the same target. Kind of assay: cell-based or functional assay.
As to “hGH T135pAF (from UniProt P01241 27-217) (ligand)”, the EC50 (nM), STAT5 phosphorylation in IM-9 cells is 0.9 nM.
“hGH S95pAF (from UniProt P01241 27-217) (ligand)” registered an EC50 (nM), STAT5 phosphorylation in IM-9 cells of 16.7 nM.
“hGH G131pAF (from UniProt P01241 27-217) (ligand)” yielded an EC50 (nM), STAT5 phosphorylation in IM-9 cells of 0.8 nM.
The substance “hGH A155pAF (from UniProt P01241 27-217) (ligand)” registered an EC50 (nM), STAT5 phosphorylation in IM-9 cells of 1.3 nM.
As for “hGH R134pAF (from UniProt P01241 27-217) (ligand)”, the EC50 (nM), STAT5 phosphorylation in IM-9 cells was 0.9 nM.
The same measure, in the same setting: the value for “hGH Y111pAF (from UniProt P01241 27-217) (ligand)” was 1 nM; that for “hGH Y103pAF (from UniProt P01241 27-217) (ligand)” was 130000 nM.
On to “His-tagged hGH Y143pAF (from UniProt P01241 27-217) (ligand)”, for which the EC50 (nM), STAT5 phosphorylation in IM-9 cells stood at 0.8 nM.
Still for that read-out and setting: next, “hGH F139pAF (from UniProt P01241 27-217) (ligand)”: 3.3 nM; “rat GH WT (from UniProt P01244 27-216) (ligand)”: above 200000 nM; “hGH F92pAF (from UniProt P01241 27-217) (ligand)”: 0.8 nM.
Take “hGH E88pAF (from UniProt P01241 27-217) (ligand)”: the EC50 (nM), STAT5 phosphorylation in IM-9 cells worked out at 0.9 nM.
Regarding “hGH Q91pAF (from UniProt P01241 27-217) (ligand)”, the EC50 (nM), STAT5 phosphorylation in IM-9 cells amounted to 2 nM.
“hGH G136pAF (from UniProt P01241 27-217) (ligand)” yielded an EC50 (nM), STAT5 phosphorylation in IM-9 cells of 1.4 nM.
“hGH N99pAF (from UniProt P01241 27-217) (ligand)”: the EC50 (nM), STAT5 phosphorylation in IM-9 cells came out at 8.5 nM.
For “hGH P133pAF (from UniProt P01241 27-217) (ligand)”, the EC50 (nM), STAT5 phosphorylation in IM-9 cells worked out at 1 nM.
In turn, “hGH K140pAF (from UniProt P01241 27-217) (ligand)” registered an EC50 (nM), STAT5 phosphorylation in IM-9 cells of 2.7 nM.

The target is the same in the next assay.
Experiment: not given
The source holds these as a separate data set.
In turn, “(His)F92pAF-20K (from UniProt P09466) (ligand)” yielded an EC50, STAT5 phosphorylation in IM-9 cells (MFI of PE, intracellular phospho-STAT5 staining) of 4.6 nM.
“(His)F92pAF-5K (from UniProt P09466) (ligand)” returned an EC50, STAT5 phosphorylation in IM-9 cells (MFI of PE, intracellular phospho-STAT5 staining) of 1.5 nM.
Same read-out and setting: the value for “hGH F92pAF (from UniProt P01241 27-217) (ligand)” was 0.9 nM; that for (His)F92-pAF-30K (ligand) was 4.1 nM.
